What all share (test): cryo-EM structure
Series [1] has as its target major capsid protein gp23* (cleaved form of gp23) of bacteriophage T4 (bacteriophage T4).
Series [2] deals with the molecule itself.
Series [3] concerns the molecule itself. The source holds these as a separate data set.

Data on three molecules can be found in publication PMC9546572 (Proceedings of the National Academy of Sciences of the …, 2022).

Like-named read-outs stand apart in the source and are kept apart here.

One may read the stoichiometry N as the number of molecules, sites or subunits per partner or assembly.

Consider “major capsid protein gp23* (cleaved form of gp23) of bacteriophage T4 (natural protein)”, for which the stoichiometry N in series [1] is 6.

B1: Soc (small outer capsid protein) of bacteriophage T4 (natural protein, UniProt P03715 1-80, looked up)
chain: MASTRGYVNIKTFEQKLDGNKKIEGKEISVAFPLYSDVHKISGAHYQTFPSEKAAYSTVYEENQRTEWIAANEDLWKVTG
Regarding B1, the “stoichiometry N” value in “cryo-EM structure [2]” was 3.

B2: vertex protein gp24* (cleaved form of gp24) of bacteriophage T4 (natural protein, UniProt P19896 11-427, looked up)
chain: STTTNSNSIGRPNLVALTRATTKLIYSDIVATQRTNQPVAAFYGIKYLNPDNEFTFKTGATYAGEAGYVDREQITELTEESKLTLNKGDLFKYNNIVYKVLEDTPFATIEESDLELALQIAIVLLKVRLFSDAASTSKFESSDSEIADARFQINKWQTAVKSRKLKTGITVELAQDLEANGFDAPNFLEDLLATEMADEINKDILQSLITVSKRYKVTGITDSGFIDLSYASAPEAGRSLYRMVCEMVSHIQKESTYTATFCVASARAAAILAASGWLKHKPEDDKYLSQNAYGFLANGLPLYCDTNSPLDYVIVGVVENIGEKEIVGSIFYAPYTEGLDLDDPEHVGAFKVVVDPESLQPSIGLLVRYALSANPYTVAKDEKEARIIDGGDMDKMAGRSDLSVLLGVKLPKIIIDE
B2: in the series “cryo-EM structure [3]”, the “stoichiometry N” value came to 5.
